B1: D. melanogaster Rhino chromodomain (19–85) (domain or fragment)
chain: DHVEEYVVEKILGKRFVNGRPQVLVKWSGFPNENNTWEPLENVGNCMKLVSDFESEVFRLHRKAAAK

The target of data set [1] is Rhino chromodomain (23–85) (D. melanogaster) (UniProt Q7JXA8). The experiment in a line: ITC. On the technique in general: In ITC the heat of successive injections is recorded.
The data set “crystal structure” deals with the molecule itself. In words: crystal structure.
The target in data set [2] is B1. In words: crystal structure.

For the molecule “H3(1–15)K9me2 peptide (from UniProt P02299 2-16)”, in data set [1], the Kd was 28.4 µM.

In turn, “H3(1–15)K9me3 peptide (from UniProt P02299 2-16)” displayed a Kd in data set [1] of 21.8 µM.

As to B1, the binding result in “crystal structure” was “binds”.

Regarding ARTKQTARKSTGGKA (trimethyl-lysine at 9 (K9me3)) [H3(1–15)K9me3 peptide], the binding result in data set [2] is on record as “binds”.

Broadly, the Kd is a measure of binding affinity in units of concentration. Low values mean higher affinity, high ones lower affinity.

Source of the values: publication PMC4117942 (Genes & Development, 2014).
